Results reported in article doi:10.1101/2025.05.20.655035.
Like-named read-outs stand apart in the source and are kept apart here.

T1: His6-TCP4 (TCP4-His6) (Arabidopsis thaliana, UniProt Q8LPR5 1-420)
T1 sequence: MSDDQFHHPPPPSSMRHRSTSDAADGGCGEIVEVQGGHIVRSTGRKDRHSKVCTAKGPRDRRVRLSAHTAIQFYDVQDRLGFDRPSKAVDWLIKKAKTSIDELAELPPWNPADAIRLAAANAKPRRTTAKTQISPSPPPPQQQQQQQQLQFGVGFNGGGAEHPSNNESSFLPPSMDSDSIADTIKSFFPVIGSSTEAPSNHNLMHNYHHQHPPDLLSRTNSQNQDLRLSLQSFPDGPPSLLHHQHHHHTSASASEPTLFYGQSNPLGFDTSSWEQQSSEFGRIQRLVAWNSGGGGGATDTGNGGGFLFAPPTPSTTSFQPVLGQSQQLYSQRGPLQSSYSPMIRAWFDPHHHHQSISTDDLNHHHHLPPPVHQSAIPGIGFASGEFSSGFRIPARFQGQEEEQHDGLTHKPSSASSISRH

B1: BS5 (dsDNA)
DNA 1: TTGCATATTGGTTGGTCCAAAAAGATCAAC
DNA 2: GTTGATCTTTTTGGACCAACCAATATGCAA
B2: BS1 (dsDNA)
DNA 1: TCAATTCAACTAGGCCCAGTTTCCTCCTTC
DNA 2: GAAGGAGGAAACTGGGCCTAGTTGAATTGA
B3: BS3-4 (dsDNA)
DNA 1: CAACACACAAATGTGGTCCATTTCTTTTTGTTCATGTGGTCCAATTTTGGTATAT
DNA 2: ATATACCAAAATTGGACCACATGAACAAAAAGAAATGGACCACATTTGTGTGTTG
B4: BS2 (dsDNA)
DNA 1: GTGATGTTAAAATGGTCCTAAGTTGACATA
DNA 2: TATGTCAACTTAGGACCATTTTAACATCAC

Key:
His6-TCP4 (TCP4-His6) [1] = target: T1, His6-TCP4 (TCP4-His6); assay: EMSA
His6-TCP4 (TCP4-His6) [2] = target: T1, His6-TCP4 (TCP4-His6); assay: EMSA; remark: listed apart in the source

| Binder | binding result (His6-TCP4 (TCP4-His6) [1]) | binding result (His6-TCP4 (TCP4-His6) [2]) |
| --- | --- | --- |
| B1 | no binding | – |
| B2 | no binding | – |
| B3 | – | binds |
| B4 | – | binds |
